Measured values reported in patent US20060177907A1 (University of California, published 2006).
Where two headings read alike, the source gives them in different places.

B2: HER3-ECD^I-II (residues 20-329), recombinant domains I and II of HER3 expressed in Drosophila S2 cells (receptor, not shown: small tags and cut ends)
chain: SEVGNSQAVCPGTLNGLSVTGDAENQYQTLYKLYERCEVVMGNLEIVLTGHNADLSFLQWIREVTGYVLVAMNEFSTLPLPNLRVVRGTQVYDGKFAIFVMLNYNTNSSHALRQLRLTQLTEILSGGVYIEKNDKLCHMDTIDWRDIVRDRDAEIVVKDNGRSCPPCHEVCKGRCWGPGSEDCQTLTKTICAPQCNGHCFGPNPNQCCHDECAGGCSGPQDTDCFACRHFNDSGACVPRCPQPLVYNKLTFQLEPNPHTKYQYGGVCVASCPHNFVVDQTSCVRACPPDKMEVDKNGLKMCEPCGGLCPK
notes: Monomer by light scattering and ultracentrifugation; The N-terminal Drosophila leader comes from the vector; the protein is secreted; also called HER3^I-II; H3 I-II
B3: HER3^I-II N44A (receptor, not shown: small tags and cut ends)
chain: SEVGNSQAVCPGTLNGLSVTGDAEAQYQTLYKLYERCEVVMGNLEIVLTGHNADLSFLQWIREVTGYVLVAMNEFSTLPLPNLRVVRGTQVYDGKFAIFVMLNYNTNSSHALRQLRLTQLTEILSGGVYIEKNDKLCHMDTIDWRDIVRDRDAEIVVKDNGRSCPPCHEVCKGRCWGPGSEDCQTLTKTICAPQCNGHCFGPNPNQCCHDECAGGCSGPQDTDCFACRHFNDSGACVPRCPQPLVYNKLTFQLEPNPHTKYQYGGVCVASCPHNFVVDQTSCVRACPPDKMEVDKNGLKMCEPCGGLCPK
notes: also called H3 I-II Mutant N44A
B4: HER3^I-II V110A (receptor, not shown: small tags and cut ends)
chain: SEVGNSQAVCPGTLNGLSVTGDAENQYQTLYKLYERCEVVMGNLEIVLTGHNADLSFLQWIREVTGYVLVAMNEFSTLPLPNLRVVRGTQAYDGKFAIFVMLNYNTNSSHALRQLRLTQLTEILSGGVYIEKNDKLCHMDTIDWRDIVRDRDAEIVVKDNGRSCPPCHEVCKGRCWGPGSEDCQTLTKTICAPQCNGHCFGPNPNQCCHDECAGGCSGPQDTDCFACRHFNDSGACVPRCPQPLVYNKLTFQLEPNPHTKYQYGGVCVASCPHNFVVDQTSCVRACPPDKMEVDKNGLKMCEPCGGLCPK
notes: also called H3^I-II V110A
B5: trx-hrg, thioredoxin-heregulin fusion with a C-terminal His and S-tag (ligand)
chain: SHLVKCAEKEKTFCVNGGECFMVKDLSNPSRYLCKCPNEFTGDRCQNYVMASFYKHLGIEF
notes: Made as in Landgraf et al. 1998; also called S-tagged hrg; immobilized hrg; not shown: thioredoxin; C-terminal His tag and S-tag

Experiments:
[1] = biological target: T1, HER3-ECD^I-IV, soluble extracellular domains of recombinant HER3 purified from Chinese hamster ovary cells (human, UniProt P21860 20-643); assay: method not given; given as the reference for the SPR value of HER3-ECD^I-II (68 nM, trx-hrg immobilized); form of hrg not stated
T1 construct: also called nonproteolyzed HER3-ECD^I-IV

HER3^I-IV E64A [2] = biological target: T2, HER3^I-IV E64A (human, UniProt P21860 20-643); assay: native gel mobility shift
T2 construct: also called H3^I-IV E64A
Description: (§1) FIG. 12. […] HER3^I-IV and the HER3^I-IV mutants were analyzed on a native Phast gel (10-15%) in the absence (−) and presence (+) of equimolar hrg. The HER3^{I-IV E64A} was also analyzed in the absence (lane 2) and presence (lane 4) of hrg. Formation of a hrg-HER3^I-IV complex is observed with HER3^I-IV, but not with […], B, HER3^I-IV and HER3^{I-IV E64A} were analyzed in a “pull down assay” in which S-tagged hrg was immobilized on S-protein resin (lanes 4-9) and HER3^I-IV could be specifically eluted with 1 μM hrg and detergent (lane 6 and 8), but HER3^{I-IV E64A} could not be eluted with PBS or 1 μM hrg (lanes 5 and 7). A small amount of HER3^{I-IV E64A} could be eluted with detergent (lane 9) which was probably due to some binding or non-specific interaction.
To determine the effects of cleavage of HER3^I-IV on its ability to bind hrg, a gel mobility shift assay was performed. […] (FIG. 12A).

[3] = biological target: HER3^FL E64A (residues 20-1342 with a mutation of E64A), transiently expressed on COS 7 cells (human, UniProt P21860 20-1342); assay: specific binding of radio-iodinated hrg to COS 7 cells transiently expressing the HER3 construct
[4] = biological target: HER3^II-CTD (residues 184-1342), transiently expressed on COS 7 cells (human, UniProt P21860 184-1342); assay: as above
HER3^II-CTD (residues 184-1342), transiently expressed on COS 7 cells, sequence (P21860 184-1342 E560G/E1064G): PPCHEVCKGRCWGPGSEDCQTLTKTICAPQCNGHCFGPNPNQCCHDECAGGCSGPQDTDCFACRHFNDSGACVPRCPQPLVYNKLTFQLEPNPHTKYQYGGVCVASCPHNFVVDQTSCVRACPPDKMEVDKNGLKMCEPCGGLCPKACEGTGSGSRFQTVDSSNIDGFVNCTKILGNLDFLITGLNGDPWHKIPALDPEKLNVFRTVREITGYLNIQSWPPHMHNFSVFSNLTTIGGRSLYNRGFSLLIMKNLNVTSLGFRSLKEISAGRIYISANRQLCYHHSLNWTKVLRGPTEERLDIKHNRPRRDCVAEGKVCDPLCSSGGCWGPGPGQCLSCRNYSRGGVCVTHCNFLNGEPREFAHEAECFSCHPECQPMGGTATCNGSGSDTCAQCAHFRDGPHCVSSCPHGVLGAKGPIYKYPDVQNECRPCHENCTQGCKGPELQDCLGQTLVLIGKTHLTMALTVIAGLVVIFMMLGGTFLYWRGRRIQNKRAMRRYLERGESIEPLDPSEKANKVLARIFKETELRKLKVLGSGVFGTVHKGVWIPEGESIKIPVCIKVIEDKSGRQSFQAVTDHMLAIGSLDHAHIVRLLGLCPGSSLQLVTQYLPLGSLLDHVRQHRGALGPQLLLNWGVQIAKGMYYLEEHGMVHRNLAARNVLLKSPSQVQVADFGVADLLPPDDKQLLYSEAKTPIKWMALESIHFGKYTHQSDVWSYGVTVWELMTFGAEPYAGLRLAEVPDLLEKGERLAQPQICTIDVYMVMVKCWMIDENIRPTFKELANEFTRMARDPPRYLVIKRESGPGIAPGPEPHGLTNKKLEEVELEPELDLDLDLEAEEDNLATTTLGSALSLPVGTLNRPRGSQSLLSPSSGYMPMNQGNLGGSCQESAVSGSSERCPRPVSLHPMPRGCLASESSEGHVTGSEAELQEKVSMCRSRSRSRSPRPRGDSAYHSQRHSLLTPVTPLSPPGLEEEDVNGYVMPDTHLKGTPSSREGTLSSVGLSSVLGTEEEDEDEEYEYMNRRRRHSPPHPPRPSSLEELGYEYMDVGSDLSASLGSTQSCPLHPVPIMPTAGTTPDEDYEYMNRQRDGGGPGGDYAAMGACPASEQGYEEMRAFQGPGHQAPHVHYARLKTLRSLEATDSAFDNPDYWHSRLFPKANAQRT

[5] = biological target: T1, HER3-ECD^I-IV, soluble extracellular …; assay: method not given; compared with the Kd of HER3-ECD^I-II (68 nM); form of hrg not stated
[6] = biological target: B5; assay: SPR, trx-hrg immobilized (68 nM) compared with HER3-ECD^I-IV (2.3 nM)
Description: (§2) Trx-hrg (13 μM) in MES buffer (100 mM pH 6.0) was immobilized on a BIAcore CM5 chip using standard N-hydroxysuccinimide/1-ethyl-3-(3-dimethylaminopropyl)carbodiimide amine-coupling chemistry. The surface of the chip was blocked with ethanolamine and could be regenerated with 5.0 M NaCl and washes with running buffer (PBS+surfactant). HER3-ECD^I-II (filtered through a 0.1-μm filter unit (Millipore, Bedford, Mass.)) in running buffer was applied to the chip at various concentrations (in triplicate) to determine the dissociation constant. Data were analyzed with the BIAevaluation software. Competition experiments were carried out using hrg at an equimolar concentration to HER3-ECD^I-II.
(§3) To further confirm that HER3-ECD^I-II binds hrg, we analyzed the interaction by SPR (BIAcore). Trx-hrg fusion protein was immobilized on a BIAcore chip for these measurements. […] This interaction could be inhibited by stoichiometric concentrations of hrg.

[7] = biological target: B5; assay: SPR (BIAcore), immobilized trx-hrg
[8] = biological target: B5; assay: SPR (BIAcore), immobilized trx-hrg
[9] = biological target: B2; assay: SPR (BIAcore), trx-hrg immobilized, HER3-ECD^I-II in solution
Description: as §2, §3

HER3^I-II N44A = biological target: B3; assay: SPR (BIAcore), immobilized trx-hrg
HER3^I-II V66A = HER3^I-II V66A (human, UniProt P21860 20-329); assay: SPR (BIAcore), immobilized trx-hrg
HER3^I-II V110A = biological target: B4; assay: SPR (BIAcore), immobilized trx-hrg
HER3^I-II K51A = biological target: T3, HER3^I-II K51A (human, UniProt P21860 20-329); assay: SPR (BIAcore), immobilized trx-hrg
T3 construct: also called H3^I-II K51A

HER3^I-II E43A = biological target: T4, HER3^I-II E43A (human, UniProt P21860 20-329); assay: SPR (BIAcore), immobilized trx-hrg
T4 construct: also called H3 I-II Mutant E43A
T4 sequence (P21860 20-329 E43A): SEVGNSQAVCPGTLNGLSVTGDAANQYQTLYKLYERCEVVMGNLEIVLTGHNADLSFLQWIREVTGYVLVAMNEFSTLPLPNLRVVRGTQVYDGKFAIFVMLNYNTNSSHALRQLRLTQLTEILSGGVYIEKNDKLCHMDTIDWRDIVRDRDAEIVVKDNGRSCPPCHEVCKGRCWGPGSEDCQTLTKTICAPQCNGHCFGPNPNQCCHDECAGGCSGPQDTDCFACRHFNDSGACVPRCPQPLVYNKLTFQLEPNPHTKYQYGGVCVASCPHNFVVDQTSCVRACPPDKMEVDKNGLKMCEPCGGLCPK

HER3^I-IV E64A [10] = biological target: T2, HER3^I-IV E64A; assay: pull-down on trx-hrg-coupled S-protein agarose
Description: as §1
To confirm that HER3^I-IVE64A has decreased binding affinity for hrg, we used a “pull down” assay in which we measured the HER3^I-IV and HER3^I-IVE64A that could be dissociated from immobilized thioredoxin-heregulin (trx-hrg) by the addition of hrg. Using trx-hrg coupled S-protein agarose, HER3^I-IV was eluted with hrg and detergent (FIG. 12B, lanes 6 and 8), but not with PBS (FIG. 12B, lane 4). No HER3^{I-IV E64A} could be recovered by elution with PBS, hrg or detergent (FIG. 12B, lanes 5, 7 and 9).

B1: hrg, 60-residue EGF-like domain of human heregulin beta1 (residues 177-237) (ligand)
chain: SHLVKCAEKEKTFCVNGGECFMVKDLSNPSRYLCKCPNEFTGDRCQNYVMASFYKHLGIEF
notes: also called I^25 hrg
[1]
  Kd: 2.3 nM
HER3^I-IV E64A [2]
  binding result: no binding (tested: 1:1 molar ratio)
[3]
  binding result: no binding
[4]
  binding result: no binding
[5]
  Kd: 1.9 nM

## B2
[6]
  fold lower binding affinity than HER3-ECD^I-IV: 30 fold

## B3
[7]
  fold decrease in binding affinity (against HER3^I-II): 1.5 fold

## B4
[7]
  fold increase in binding affinity (against HER3^I-II): 4 fold
[8]
  fold increase in binding affinity (against HER3^I-II): 5 fold

## B5
[9]
  Kd: 68 nM
  koff: 0.00727 s⁻¹
  kon: 107000 M⁻¹ s⁻¹
HER3^I-II N44A
  Kd: 95.5 nM
HER3^I-II V66A
  Kd: 60.5 nM
HER3^I-II V110A
  Kd: 15.4 nM
HER3^I-II K51A
  Kd: 63 nM
HER3^I-II E43A
  Kd: 63 nM
HER3^I-IV E64A [10]
  binding result: no binding
